The results in this text go back to patent US20150093802.

Common to all, as to assay: one_hybrid
The subject of data set [1] is OZ119 (CF877R) (synthetic). The settings on record: bacterial two-hybrid lacZ, SD 0.35.
In data set [2] the test system is OZ120 (CF877R) (synthetic). The conditions noted are these: bacterial two-hybrid lacZ, SD 0.01.
Data set [3] relates to OZ121 (CF877R) (synthetic). The conditions noted are these: bacterial two-hybrid lacZ, SD 0.19.
Data set [4] concerns OZ122 (CF877R) (synthetic). The conditions noted are these: bacterial two-hybrid lacZ, SD 0.59.
Data set [5] has as its system OZ123 (CF877R) (synthetic). The settings on record: bacterial two-hybrid lacZ, SD 0.63.
The subject of data set [6] is OZ124 (CF877R) (synthetic). The settings on record: bacterial two-hybrid lacZ, SD 0.20.
In data set [7] the test system is OZ125 (CF877R) (synthetic). The settings on record: bacterial two-hybrid lacZ, SD 0.85.
Data set [8] has as its system OZ126 (CF877R) (synthetic). The settings on record: bacterial two-hybrid lacZ, SD 0.28.
For data set [9], the system named is OZ127 (CF877R) (synthetic). The settings on record: bacterial two-hybrid lacZ, SD 0.02.
In data set [10] the test system is OZ128 (CF877R) (synthetic). The settings on record: bacterial two-hybrid lacZ, SD 0.07.
Data set [11] has as its system OZ129 (CF877R) (synthetic). The conditions noted are these: bacterial two-hybrid lacZ, SD 0.07.
Data set [12] concerns OZ130 (CF877R) (synthetic). The settings on record: bacterial two-hybrid lacZ, SD 0.22.
Data set [13] concerns OZ131 (CF877R) (synthetic). The settings on record: bacterial two-hybrid lacZ, SD 0.12.
The test system of data set [14] is OZ133 (CF877R) (synthetic). The conditions noted are these: bacterial two-hybrid lacZ, SD 0.05.
For data set [15], the system named is OZ134 (CF877R) (synthetic). The conditions noted are these: bacterial two-hybrid lacZ, SD 0.19.
Data set [16] concerns OZ135 (CF877R) (synthetic). The conditions noted are these: bacterial two-hybrid lacZ, SD 0.07.
The test system of data set [17] is OZ136 (CF877R) (synthetic). The settings on record: bacterial two-hybrid lacZ, SD 0.06.
In data set [18] the test system is OZ137 (CF877R) (synthetic). The conditions noted are these: bacterial two-hybrid lacZ, SD 0.04.
Data set [19] deals with OZ138 (CF877R) (synthetic). The conditions noted are these: bacterial two-hybrid lacZ, SD 0.41.
Data set [20] relates to OZ139 (CF877R) (synthetic). The conditions noted are these: bacterial two-hybrid lacZ, SD 0.03.
The test system of data set [21] is OZ140 (CF877R) (synthetic). The conditions noted are these: bacterial two-hybrid lacZ, SD 0.48.
Data set [22] concerns OZ141 (CF877R) (synthetic). The settings on record: bacterial two-hybrid lacZ, SD 0.08.
Data set [23] relates to OZ142 (CF877R) (synthetic). The conditions noted are these: bacterial two-hybrid lacZ, SD 0.16.
Data set [24] concerns OZ107 (CF877L) (synthetic). The conditions noted are these: bacterial two-hybrid lacZ, SD 0.58.
The subject of data set [25] is OZ108 (CF877L) (synthetic). The conditions noted are these: bacterial two-hybrid lacZ, SD 0.51.
The subject of data set [26] is OZ109 (CF877L) (synthetic). The conditions noted are these: bacterial two-hybrid lacZ, SD 0.20.
Data set [27] concerns OZ110 (CF877L) (synthetic). The conditions noted are these: bacterial two-hybrid lacZ, SD 0.15; marked + in table.
The test system of data set [28] is OZ111 (CF877L) (synthetic). The settings on record: bacterial two-hybrid lacZ, SD 1.90; marked + in table.
The subject of data set [29] is OZ112 (CF877L) (synthetic). The conditions noted are these: bacterial two-hybrid lacZ, SD 0.55.
The test system of data set [30] is OZ113 (CF877L) (synthetic). The settings on record: bacterial two-hybrid lacZ, SD 0.20.
Data set [31] relates to OZ114 (CF877L) (synthetic). The settings on record: bacterial two-hybrid lacZ, SD 0.18.
Data set [32] concerns OZ115 (CF877L) (synthetic). The conditions noted are these: bacterial two-hybrid lacZ, SD 0.12.
Data set [33] deals with OZ116 (CF877L) (synthetic). The settings on record: bacterial two-hybrid lacZ, SD 0.38.
Data set [34] concerns OZ117 (CF877L) (synthetic). The conditions noted are these: bacterial two-hybrid lacZ, SD 0.33.
Data set [35] relates to OZ118 (CF877L) (synthetic). The settings on record: bacterial two-hybrid lacZ, SD 0.08.

“GAGTGGTTA (double strand) [CF877R half-site]”: the activity (fold activation) was 2.78 in data set [1]; 2.53 in [2]; 2.91 in data set [3]; 4.72 in data set [4]; 5.03 in data set [5]; 4.41 in data set [6]. Besides, the activity (fold activation) in [7] stood at 4; in [8], 2.57; in [9], 1.6; in data set [10] it was 2.12; in data set [11], 2.55; in data set [12], 2.47. Besides, the activity (fold activation) in [13] stood at 2.08; in [14], 3.24; in data set [15] it was 3.71; in data set [16], 2.25; in [17], 2.16; in [18], 2.26. Further, the activity (fold activation) stood at 2.52 in data set [19]; 2.74 in data set [20]; 2.99 in [21]; 2.87 in [22]; 2.73 in data set [23].

As for “GTGGAATTA (double strand) [CF877L half-site]”, the activity (fold activation) was found to be 1.92 in data set [24]; 2.31 in data set [25]; 2.83 in [26]; 1.61 in data set [27]; 2.2 in [28]; 2.52 in data set [29]. Further, the activity (fold activation) worked out at 1.61 in data set [30]; 2.95 in [31]; 2.71 in data set [32]; 2.53 in data set [33]; 3.87 in data set [34]; 3.55 in data set [35].
